Measured values as given in patent US20060062797A1 (RESEARCH FOUNDATION OF STATE UNIVERSITY OF NEW YORK AT …, published 2006).
No end group written: not given here.

How the values were obtained:
[1] = molecular target: the molecule itself; assay: 2D solid-state NMR (DARR) on fibrils, self-association
[2] = molecular target: Aβ1-42 peptide (SEQ ID NO: 157) (Homo sapiens (Human), UniProt P05067 672-713); assay: cell-based or functional assay

Binder	binding result [1]	thioflavin T fluorescence, inhibition of fibrillization at Aβ1-42:I1 molar ratio 1:20 [2] [%]
EPEITLIIFGVMAGVIG (not fully specified, 17-residue fragment of glycophorin A, residues 70-86, that forms fibrils; NMR samples were 13C-labelled at Gly79, Gly83 or the Met81 methyl; also called truncated GpA; glycophorin A transmembrane peptide fragment) [truncated glycophorin A peptide GpA70-86 (SEQ ID NO: 158)]	binds	–
RGTFEGKF-NH2 (not fully specified; printed as RGTFEGKF-NH2) [amyloid fibril inhibitor protein RGTFEGKF-NH2 (SEQ ID NO: 1)]	–	70
